Measured values taken from patent publication US20230265151A1, “GIP/GLP1 CO-AGONIST COMPOUNDS” (priority 2020, published 2023).
Numbering of substitutions follows the chain as printed.

T1: human GIP receptor (human, UniProt P48546 22-466)
T1 sequence (looked up): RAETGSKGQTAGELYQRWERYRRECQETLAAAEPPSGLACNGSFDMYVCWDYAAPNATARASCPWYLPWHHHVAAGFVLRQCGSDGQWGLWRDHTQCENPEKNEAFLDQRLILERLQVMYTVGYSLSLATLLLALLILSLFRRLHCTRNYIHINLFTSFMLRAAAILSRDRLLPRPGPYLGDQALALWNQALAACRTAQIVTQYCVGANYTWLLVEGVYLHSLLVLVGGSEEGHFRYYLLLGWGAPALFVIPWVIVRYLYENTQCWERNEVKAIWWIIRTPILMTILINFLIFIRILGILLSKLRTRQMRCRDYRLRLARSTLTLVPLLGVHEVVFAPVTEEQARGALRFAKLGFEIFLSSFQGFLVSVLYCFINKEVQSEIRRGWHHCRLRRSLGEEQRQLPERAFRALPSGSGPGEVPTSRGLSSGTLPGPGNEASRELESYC

B1: Example 259 (peptide)
peptide: YXEGTXTSDXSIXLDXKAQXKFIXXLIEGGPSSGAPPPS
modifications: Y-Aib-EGT-αMeF(2F)-TSD-OMeY-SI-αMeL-LD-Orn-K((2-[2-(2-Amino-ethoxy)-ethoxy]-acetyl)2-(γ-Glu)-CO-(CH2)12-CO2H)AQ-Aib-K((2-[2-(2-Amino-ethoxy)-ethoxy]-acetyl)2-(γ-Glu)-CO-(CH2)12-CO2H)FI-(D-Glu)-αMeY-LIEGGPSSGAPPPS-NH2
B2: Example 260 (peptide)
peptide: B1 peptide with K21E, E28K
modifications: Y-Aib-EGT-αMeF(2F)-TSD-OMeY-SI-αMeL-LD-Orn-K((2-[2-(2-Amino-ethoxy)-ethoxy]-acetyl)2-(γ-Glu)-CO-(CH2)12-CO2H)AQ-Aib-EFI-(D-Glu)-αMeY-LIK((2-[2-(2-Amino-ethoxy)-ethoxy]-acetyl)2-(γ-Glu)-CO-(CH2)12-CO2H)GGPSSGAPPPS-NH2
B3: Example 246 (peptide)
peptide: YXEGTXTSDXXIXLDXIAQXEFIKXLIKGGPSSGAPPPS
modifications: Y-Aib-EGT-αMeF(2F)-TSD-4Pal-Aib-I-αMeL-LD-Orn-IAQ-Aib-EFIK((2-[2-(2-Amino-ethoxy)-ethoxy]-acetyl)2-(γ-Glu)-(10-(4-carboxyphenoxy)decanoyl))-αMeY-LIK((2-[2-(2-Amino-ethoxy)-ethoxy]-acetyl)2-(γ-Glu)-(10-(4-carboxyphenoxy)decanoyl))GGPSSGAPPPS-NH2
B4: Example 253 (peptide)
peptide: B1 peptide with K17I, E28K
modifications: Y-Aib-EGT-αMeF(2F)-TSD-2Nal-SI-αMeL-LD-Orn-IAQ-Aib-K((2-[2-(2-Amino-ethoxy)-ethoxy]-acetyl)2-(γ-Glu)-CO-(CH2)12-CO2H)Fl-(D-Glu)-αMeY-LIK((2-[2-(2-Amino-ethoxy)-ethoxy]-acetyl)2-(γ-Glu)-CO-(CH2)12-CO2H)GGPSSGAPPPS-NH2
B5: Example 226 (peptide)
peptide: B3 peptide with X11S
modifications: Y-Aib-EGT-αMeF(2F)-TSD-4Pal-SI-αMeL-LD-Orn-IAQ-Aib-EFIK((2-[2-(2-Amino-ethoxy)-ethoxy]-acetyl)3-(γ-Glu)-CO-(CH2)12-CO2H)-αMeY-LIK((2-[2-(2-Amino-ethoxy)-ethoxy]-acetyl)3-(γ-Glu)-CO-(CH2)12-CO2H)GGPSSGAPPPS-NH2
B6: Example 263 (peptide)
peptide: B1 peptide with K17I, E28K
modifications: Y-Aib-EGT-αMeF(2F)-TSD-OMeY-SI-αMeL-LD-Orn-IAQ-Aib-K((2-[2-(2-Amino-ethoxy)-ethoxy]-acetyl)2-(γ-Glu)-CO-(CH2)12-CO2H)FI-(D-Glu)-αMeY-LIK((2-[2-(2-Amino-ethoxy)-ethoxy]-acetyl)2-(γ-Glu)-CO-(CH2)12-CO2H)GGPSSGAPPPS-NH2
B7: Example 227 (peptide)
peptide: B1 peptide with K17I, E28K
modifications: Y-Aib-EGT-αMeF(2F)-TSD-4Pal-SI-αMeL-LD-Orn-IAQ-Aib-K((2-[2-(2-Amino-ethoxy)-ethoxy]-acetyl)3-(γ-Glu)-CO-(CH2)12-CO2H)FI-(D-Glu)-αMeY-LIK((2-[2-(2-Amino-ethoxy)-ethoxy]-acetyl)3-(γ-Glu)-CO-(CH2)12-CO2H)GGPSSGAPPPS-NH2
B8: Example 252 (peptide)
peptide: B3 peptide with X11S
modifications: Y-Aib-EGT-αMeF(2F)-TSD-2Nal-SI-αMeL-LD-Orn-IAQ-Aib-EFIK((2-[2-(2-Amino-ethoxy)-ethoxy]-acetyl)2-(γ-Glu)-CO-(CH2)12-CO2H)-αMeY-LIK((2-[2-(2-Amino-ethoxy)-ethoxy]-acetyl)2-(γ-Glu)-CO-(CH2)12-CO2H)GGPSSGAPPPS-NH2
B9: Example 224 (peptide)
peptide: B1 peptide with K21E, E28K
modifications: Y-Aib-EGT-αMeF(2F)-TSD-4Pal-SI-αMeL-LD-Orn-K((2-[2-(2-Amino-ethoxy)-ethoxy]-acetyl)3-(γ-Glu)-CO-(CH2)12-CO2H)AQ-Aib-EFI-(D-Glu)-αMeY-LIK((2-[2-(2-Amino-ethoxy)-ethoxy]-acetyl)3-(γ-Glu)-CO-(CH2)12-CO2H)GGPSSGAPPPS-NH2
B10: Example 262 (peptide)
peptide: B3 peptide with X11S
modifications: Y-Aib-EGT-αMeF(2F)-TSD-OMeY-SI-αMeL-LD-Orn-IAQ-Aib-EFIK((2-[2-(2-Amino-ethoxy)-ethoxy]-acetyl)2-(γ-Glu)-CO-(CH2)12-CO2H)-αMeY-LIK((2-[2-(2-Amino-ethoxy)-ethoxy]-acetyl)2-(γ-Glu)-CO-(CH2)12-CO2H)GGPSSGAPPPS-NH2
B11: Example 239 (peptide)
peptide: B3 peptide with X10Y
modifications: Y-Aib-EGT-αMeF(2F)-TSDY-Aib-I-αMeL-LD-Orn-IAQ-Aib-EFIK((2-[2-(2-Amino-ethoxy)-ethoxy]-acetyl)2-(γ-Glu)-(10-(4-carboxyphenoxy)decanoyl))-αMeY-LIK((2-[2-(2-Amino-ethoxy)-ethoxy]-acetyl)2-(γ-Glu)-(10-(4-carboxyphenoxy)decanoyl))GGPSSGAPPPS-NH2
B12: Example 256 (peptide)
peptide: B1 peptide with K21E, E28K
modifications: Y-Aib-EGT-αMeF(2F)-TSD-2Nal-SI-αMeL-LD-Orn-K((2-[2-(2-Amino-ethoxy)-ethoxy]-acetyl)2-CO-(CH2)12-CO2H)AQ-Aib-EFI-(D-Glu)-αMeY-LIK((2-[2-(2-Amino-ethoxy)-ethoxy]-acetyl)2-CO-(CH2)12-CO2H)GGPSSGAPPPS-NH2 …
B13: Example 233 (peptide)
peptide: B3 peptide with X10Y
modifications: Y-Aib-EGT-αMeF(2F)-TSDY-Aib-I-αMeL-LD-Orn-IAQ-Aib-EFIK((2-[2-(2-Amino-ethoxy)-ethoxy]-acetyl)2-(γ-Glu)-CO-(CH2)12-CO2H)-αMeY-LIK((2-[2-(2-Amino-ethoxy)-ethoxy]-acetyl)2-(γ-Glu)-CO-(CH2)12-CO2H)GGPSSGAPPPS-NH2
B14: Example 250 (peptide)
peptide: B1 peptide with K21E, E28K
modifications: Y-Aib-EGT-αMeF(2F)-TSD-2Nal-SI-αMeL-LD-Orn-K((2-[2-(2-Amino-ethoxy)-ethoxy]-acetyl)2-(γ-Glu)-CO-(CH2)12-CO2H)AQ-Aib-EFI-(D-Glu)-αMeY-LIK((2-[2-(2-Amino-ethoxy)-ethoxy]-acetyl)2-(γ-Glu)-CO-(CH2)12-CO2H)GGPSSGAPPPS-NH2
B15: Example 255 (peptide)
peptide: B1 peptide
modifications: Y-Aib-EGT-αMeF(2F)-TSD-2Nal-SI-αMeL-LD-Orn-K((2-[2-(2-Amino-ethoxy)-ethoxy]-acetyl)2-CO-(CH2)12-CO2H)AQ-Aib-K((2-[2-(2-Amino-ethoxy)-ethoxy]-acetyl)2-CO-(CH2)12-CO2H)FI-(D-Glu)-αMeY-LIEGGPSSGAPPPS-NH2 …

These binders were tested against T1, human GIP receptor (assay: cell-based or functional assay).

Binder	cAMP EC50 (1.0% HSA) [nM]	cAMP Emax (1.0% HSA) [%]
B1	2.34	66.4
B2	3.27	
B3	1.63	
B4	21.7	
B5	4.86	
B6	5.91	
B7	1.59	
B8	29.9	
B9	2.92	
B10	8.15	79.7
B11	5.46	
B12	1.5	75.3
B13	6.08	91.4
B14	38.8	
B15	2.27	

These binders were tested against human GLP-1 receptor (human, UniProt P43220 24-463) (assay: cell-based or functional assay).

Binder	cAMP EC50 (1.0% HSA) [nM]
B1	28.9
B2	32
B3	22.9
B4	192
B5	11.3
B6	56.7
B7	41.8
B8	131
B9	71
B10	69.8
B11	25.2
B12	12.6
B13	56.7
B14	63
B15	13.7

Each binder was assayed against human glucagon receptor (human, UniProt P47871 26-477) (assay: cell-based or functional assay).

Binder	cAMP EC50 (1.0% HSA) [nM]
B1	> 9950
B2	> 9950
B3	> 9950
B4	> 9950
B5	> 9950
B6	> 9950
B7	> 9950
B8	> 9950
B9	> 9950
B10	> 9950
B11	> 9950
B12	> 9950
B13	> 9950
B14	> 9950
B15	> 9950
